Data set [1] concerns the target T1, human GM2 activator protein (GM2AP), recombinant, P17900.
T1 chain: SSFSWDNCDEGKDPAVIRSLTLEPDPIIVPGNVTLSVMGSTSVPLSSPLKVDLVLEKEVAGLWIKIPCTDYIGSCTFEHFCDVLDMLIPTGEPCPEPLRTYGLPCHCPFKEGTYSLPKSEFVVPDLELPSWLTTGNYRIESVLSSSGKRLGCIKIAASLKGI

The target in data set [2] is plasma membrane mannose-6-phosphate receptor of human Tay-Sachs fibroblasts (human, UniProt P11717 41-2491). Description: cell-based or functional assay.
plasma membrane mannose-6-phosphate receptor of human Tay-Sachs fibroblasts, sequence (P11717 41-2491): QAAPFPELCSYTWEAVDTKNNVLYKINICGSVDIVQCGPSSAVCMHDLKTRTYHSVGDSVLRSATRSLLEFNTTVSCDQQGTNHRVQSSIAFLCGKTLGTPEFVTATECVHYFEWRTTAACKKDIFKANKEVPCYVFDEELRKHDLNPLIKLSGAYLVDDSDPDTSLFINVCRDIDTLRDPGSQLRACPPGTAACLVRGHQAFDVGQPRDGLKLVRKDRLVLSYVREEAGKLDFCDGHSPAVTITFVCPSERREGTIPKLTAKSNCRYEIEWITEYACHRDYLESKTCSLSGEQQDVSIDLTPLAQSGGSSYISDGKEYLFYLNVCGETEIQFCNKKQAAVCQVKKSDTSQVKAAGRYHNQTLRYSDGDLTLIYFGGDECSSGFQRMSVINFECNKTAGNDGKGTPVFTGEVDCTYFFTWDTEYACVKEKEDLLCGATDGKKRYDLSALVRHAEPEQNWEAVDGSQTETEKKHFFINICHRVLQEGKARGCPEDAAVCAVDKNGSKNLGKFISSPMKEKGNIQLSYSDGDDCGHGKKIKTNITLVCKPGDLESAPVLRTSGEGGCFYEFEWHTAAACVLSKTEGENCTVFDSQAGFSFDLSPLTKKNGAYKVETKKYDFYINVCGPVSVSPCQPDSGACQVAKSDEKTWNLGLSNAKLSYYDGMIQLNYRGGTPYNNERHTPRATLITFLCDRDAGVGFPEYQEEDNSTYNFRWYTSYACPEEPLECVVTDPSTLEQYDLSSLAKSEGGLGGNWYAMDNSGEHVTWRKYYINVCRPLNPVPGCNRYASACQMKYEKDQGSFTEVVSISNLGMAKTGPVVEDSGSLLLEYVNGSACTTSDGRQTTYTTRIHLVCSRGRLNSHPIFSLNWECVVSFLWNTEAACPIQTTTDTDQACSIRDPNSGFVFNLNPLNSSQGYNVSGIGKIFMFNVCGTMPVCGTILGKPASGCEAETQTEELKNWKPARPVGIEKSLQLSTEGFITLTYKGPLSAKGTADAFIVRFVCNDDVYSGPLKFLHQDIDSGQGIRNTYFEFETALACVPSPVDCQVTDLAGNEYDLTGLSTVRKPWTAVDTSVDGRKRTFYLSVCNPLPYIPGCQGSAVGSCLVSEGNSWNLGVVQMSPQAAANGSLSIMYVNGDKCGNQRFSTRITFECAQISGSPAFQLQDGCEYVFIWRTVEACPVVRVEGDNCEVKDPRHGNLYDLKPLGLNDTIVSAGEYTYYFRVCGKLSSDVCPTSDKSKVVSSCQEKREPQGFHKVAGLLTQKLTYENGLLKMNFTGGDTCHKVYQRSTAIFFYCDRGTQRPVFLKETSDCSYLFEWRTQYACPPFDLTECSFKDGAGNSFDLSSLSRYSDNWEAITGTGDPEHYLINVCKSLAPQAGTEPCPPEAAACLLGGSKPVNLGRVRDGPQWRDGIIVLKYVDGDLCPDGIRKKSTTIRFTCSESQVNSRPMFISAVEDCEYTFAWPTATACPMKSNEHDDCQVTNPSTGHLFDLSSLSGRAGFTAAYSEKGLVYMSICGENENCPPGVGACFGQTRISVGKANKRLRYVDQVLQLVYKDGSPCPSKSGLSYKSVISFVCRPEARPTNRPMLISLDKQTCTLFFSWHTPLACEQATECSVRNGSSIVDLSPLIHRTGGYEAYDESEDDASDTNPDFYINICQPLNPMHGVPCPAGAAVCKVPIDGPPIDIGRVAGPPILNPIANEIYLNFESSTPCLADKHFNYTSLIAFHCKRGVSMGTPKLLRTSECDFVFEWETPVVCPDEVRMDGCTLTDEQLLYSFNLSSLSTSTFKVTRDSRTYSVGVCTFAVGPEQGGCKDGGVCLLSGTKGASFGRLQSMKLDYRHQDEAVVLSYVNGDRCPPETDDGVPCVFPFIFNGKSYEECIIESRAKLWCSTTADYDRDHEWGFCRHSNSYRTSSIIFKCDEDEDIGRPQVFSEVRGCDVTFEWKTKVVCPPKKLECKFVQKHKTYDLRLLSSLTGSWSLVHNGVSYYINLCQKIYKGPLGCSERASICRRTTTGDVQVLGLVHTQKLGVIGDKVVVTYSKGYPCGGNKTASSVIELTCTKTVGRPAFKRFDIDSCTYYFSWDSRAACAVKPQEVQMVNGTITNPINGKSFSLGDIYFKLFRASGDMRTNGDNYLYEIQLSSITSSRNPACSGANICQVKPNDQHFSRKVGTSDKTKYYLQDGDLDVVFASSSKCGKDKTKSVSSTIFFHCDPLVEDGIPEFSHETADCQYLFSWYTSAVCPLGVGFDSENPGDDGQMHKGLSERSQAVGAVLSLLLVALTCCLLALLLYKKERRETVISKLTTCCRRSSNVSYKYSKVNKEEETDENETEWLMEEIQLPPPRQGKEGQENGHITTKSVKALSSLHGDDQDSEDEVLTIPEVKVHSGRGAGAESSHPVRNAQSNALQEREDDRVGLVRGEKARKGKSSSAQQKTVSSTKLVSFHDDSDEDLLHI

B1: Hex A (β-hexosaminidase A), purified from human placenta (protein)
chain 1: LWPWPQNFQTSDQRYVLYPNNFQFQYDVSSAAQPGCSVLDEAFQRYRDLLFGSGSWPRPYLTGKRHTLEKNVLVVSVVTPGCNQLPTLESVENYTLTINDDQCLLLSETVWGALRGLETFSQLVWKSAEGTFFINKTEIEDFPRFPHRGLLLDTSRHYLPLSSILDTLDVMAYNKLNVFHWHLVDDPSFPYESFTFPELMRKGSYNPVTHIYTAQDVKEVIEYARLRGIRVLAEFDTPGHTLSWGPGIPGLLTPCYSGSEPSGTFGPVNPSLNNTYEFMSTFFLEVSSVFPDFYLHLGGDEVDFTCWKSNPEIQDFMRKKGFGEDFKQLESFYIQTLLDIVSSYGKGYVVWQEVFDNKVKIQPDTIIQVWREDIPVNYMKELELVTKAGFRALLSAPWYLNRISYGPDWKDFYIVEPLAFEGTPEQKALVIGGEACMWGEYVDNTNLVPRLWPRAGAVAERLWSNKLTSDLTFAYERLSHFRCELLRRGVQAQPLNVGFCEQEFEQT
chain 2: TQVQQLLVSITLQSECDAFPNISSDESYTLLVKEPVAVLKANRVWGALRGLETFSQLVYQDSYGTFTINESTIIDSPRFSHRGILIDTSRHYLPVKIILKTLDAMAFNKFNVLHWHIVDDQSFPYQSITFPELSNKGSYSLSHVYTPNDVRMVIEYARLRGIRVLPEFDTPGHTLSWGKGQKDLLTPCYSRQNKLDSFGPINPTLNTTYSFLTTFFKEISEVFPDQFIHLGGDEVEFKCWESNPKIQDFMRQKGFGTDFKKLESFYIQKVLDIIATINKGSIVWQEVFDDKAKLAPGTIVEVWKDSAYPEELSRVTASGFPVILSAPWYLDLISYGQDWRKYYKVEPLDFGGTQKQKQLFIGGEACLWGEYVDATNLTPRLWPRASAVGERLWSSKDVRDMDDAYDRLTRHRCRMVERGIAAQPLYAGYCNHENM
As to B1, the “detectable NBD-GM3 in the in vitro NBD-GM2 hydrolysis assay with human GM2AP” value in data set [1] is on record as “Only the assay containing Hex A or the variant protein produced detectable levels of NBD-GM3”.

B2: Hex B (β-hexosaminidase B), purified from human placenta (protein)
chain: TQVQQLLVSITLQSECDAFPNISSDESYTLLVKEPVAVLKANRVWGALRGLETFSQLVYQDSYGTFTINESTIIDSPRFSHRGILIDTSRHYLPVKIILKTLDAMAFNKFNVLHWHIVDDQSFPYQSITFPELSNKGSYSLSHVYTPNDVRMVIEYARLRGIRVLPEFDTPGHTLSWGKGQKDLLTPCYSRQNKLDSFGPINPTLNTTYSFLTTFFKEISEVFPDQFIHLGGDEVEFKCWESNPKIQDFMRQKGFGTDFKKLESFYIQKVLDIIATINKGSIVWQEVFDDKAKLAPGTIVEVWKDSAYPEELSRVTASGFPVILSAPWYLDLISYGQDWRKYYKVEPLDFGGTQKQKQLFIGGEACLWGEYVDATNLTPRLWPRASAVGERLWSSKDVRDMDDAYDRLTRHRCRMVERGIAAQPLYAGYCNHENM
As for B2, in data set [1], the “detectable NBD-GM3 in the in vitro NBD-GM2 hydrolysis assay with human GM2AP (none for Hex B, the negative control)” value is given as “Only the assay containing Hex A or the variant protein produced detectable levels of NBD-GM3”.

B3: mature variant α-subunit homodimer (500 mM NaCl DEAE fraction) (protein)
chain: LWPWPQNFQTSDQRYVLYPNNFQFQYDVSSAAQPGCSVLDEAFQRYRDLLFGSGSWPRPYLTGKRHTLEKNVLVVSVVTPGCNQLPTLESVENYTLTINDDQCLLLSETVWGALRGLETFSQLVWKSAEGTFFINKTEIEDFPRFPHRGLLLDTSRHYLPLKSILDTLDVMAYNKLNVFHWHLVDDQSFPYESFTFPELMRKGSYSLSHIYTAQDVKEVIEYARLRGIRVLAEFDTPGHTLSWGPGIPGLLTPCYSGSEPSGTFGPVNPSLNNTYEFMSTFFLEVSSVFPDFYLHLGGDEVDFTCWKSNPEIQDFMRKKGFGEDFKQLESFYIQTLLDIVSSYGKGYVVWQEVFDNKVKIQPDTIIQVWREDIPVNYMKELELVTKAGFRALLSAPWYLNRISYGQDWRKFYKVEPLAFEGTPEQKALVIGGEACMWGEYVDATNLVPRLWPRAGAVAERLWSNKLTRDMDDAYDRLSHFRCELVRRGVAAQPLYAGYCNQEFEQT
For B3, in data set [1], the “NBD-GM3 produced in the overnight in vitro NBD-GM2 hydrolysis assay (liposomes plus rGM2AP), against Hex A at the same number of MUG units” value is given as “the variant protein produces at least twice as much NBD-GM3 as Hex A” and the “detectable NBD-GM3 in the in vitro NBD-GM2 hydrolysis assay with human GM2AP” value was “Only the assay containing Hex A or the variant protein produced detectable levels of NBD-GM3”.

B4: secreted variant β-hexosaminidase protein in conditioned media (enzyme)
chain: LWPWPQNFQTSDQRYVLYPNNFQFQYDVSSAAQPGCSVLDEAFQRYRDLLFGSGSWPRPYLTGKRHTLEKNVLVVSVVTPGCNQLPTLESVENYTLTINDDQCLLLSETVWGALRGLETFSQLVWKSAEGTFFINKTEIEDFPRFPHRGLLLDTSRHYLPLKSILDTLDVMAYNKLNVFHWHLVDDQSFPYESFTFPELMRKGSYSLSHIYTAQDVKEVIEYARLRGIRVLAEFDTPGHTLSWGPGIPGLLTPCYSGSEPSGTFGPVNPSLNNTYEFMSTFFLEVSSVFPDFYLHLGGDEVDFTCWKSNPEIQDFMRKKGFGEDFKQLESFYIQTLLDIVSSYGKGYVVWQEVFDNKVKIQPDTIIQVWREDIPVNYMKELELVTKAGFRALLSAPWYLNRISYGQDWRKFYKVEPLAFEGTPEQKALVIGGEACMWGEYVDATNLVPRLWPRAGAVAERLWSNKLTRDMDDAYDRLSHFRCELVRRGVAAQPLYAGYCNQEFEQT
modifications: mannose-6-phosphate on Asn-linked oligosaccharides
In the case of B4, in data set [2], the “fold increase in intracellular MUGS activity of untransfected TSD fibroblasts grown in conditioned media” value is ~38 fold and the “fold increase in intracellular MUGS activity of untransfected TSD fibroblasts grown in conditioned media containing 5 mM mannose-6-phosphate” value is ~10 fold.

The values are drawn from patent US20150258180A1 (UNIVERSITY OF MANITOBA, published 2015).
